The target of experiment [1] is LC3B protein (recombinant) (UniProt Q9GZQ8 1-120). The experiment can be described thus: ITC; peptides at 0.35 mM titrated into 0.015 mM LC3 and GABARAP proteins in 21 steps; MicroCal VP-ITC; 25 °C and 35 °C (the LC3B titrations of Fig. 4a at 35 °C); 50 mM Na2HPO4, 100 mM NaCl, pH 7.0; one-site binding model. Particulars: both partners purified. A general note: In ITC the heat of successive injections is recorded.

Experiment [2] deals with T1, GABARAP protein (recombinant) (UniProt O95166 1-117).
T1 construct: GABARAP, one of the six mATG8 proteins; CSPs were mapped on PDB 1GNU; source: unlabelled or 15N-labelled
T1 sequence (O95166 whole entry): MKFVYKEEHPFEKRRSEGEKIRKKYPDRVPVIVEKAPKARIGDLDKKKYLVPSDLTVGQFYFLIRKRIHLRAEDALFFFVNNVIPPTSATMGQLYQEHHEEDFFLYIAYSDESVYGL
Described as above. Particulars: both partners purified.

Non-standard residues stand in square brackets, D forms with d. No end group written: not given here. pS = N[C@@H](COP(=O)(O)O)C(=O)O Where only a bound is given, the exact number is not on record here.

B1: AMBRA1-LIR peptide, unphosphorylated (P0) (peptide)
peptide: EALNSGVEYYWDQLNET
notes: limits counted from S1014 as the fifth letter; also called unmodified AMBRA1-LIR; source: synthetic peptide, bought: GenScript
For the molecule B1, the Kd (as a rule, the concentration at which binding is half-saturated) is > 100 µM in experiment [1] and ~40 µM in experiment [2].

B2: AMBRA1-LIR peptide, S1014 phosphorylated (P1) (peptide)
peptide: EALN[pS]GVEYYWDQLNET
notes: limits counted from S1014 as the fifth letter; also called S1014-phosphorylated AMBRA1-LIR peptide; source: synthetic peptide, bought: GenScript
Take B2: the Kd worked out at 53 µM in experiment [1] and 21 µM in experiment [2].

For the origin of these results see publication PMC6138665, “HUWE1 E3 ligase promotes PINK1/PARKIN-independent mitophagy by regulating AMBRA1 activation via IKKα” (Nature Communications, 2018).
